Experimental data: US20150316552A1, “Human Notch Receptor Mutations and Their Use” (OncoMed Pharmaceuticals, Inc., priority 2011, published 2015)
“Also recorded” adds a separate entry of the source.

Legend:
[1] = tested on: OMP-B40 breast tumors; test: OMP-B40 breast tumor xenograft, tumor growth; format: in vivo, NOD/SCID mice
Protocol: B40 p3 tumor cells were injected subcutaneously into the left flank of 6-7 week old female NOD/SCID mice (300,000 cells/mouse). Mice were monitored weekly and tumors were allowed to grow until they were approximately 140 mm^3 (78 days after injection). Mice were randomized into five treatment groups and treated with control antibody, or different doses (0.3 mg/kg, 1 mg/kg, 3 mg/kg, 10 mg/kg) of the OMP-52M51 humanized anti-NOTCH1 antibody. The antibodies were dosed i.p. twice a week. Tumor growth was monitored by caliper measurement once a week.
Dissociated OMP-B40 p3 tumor cells were re-suspended in injection media (PBS containing 100 ng/mL VEGF and 100 ng/mL bFGF and 0.5× matrigel) and injected subcutaneously into the left flank of 6-7 week old female NOD/SCID mice (300,000 cells/mouse). Mice were monitored weekly and tumors were allowed to grow until they were approximately 140 mm^3 (78 days after injection). Mice were randomized into four treatment groups (n=10 mice/group) and treated with control antibody, anti-NOTCH1 antibody OMP-52M51, taxol or a combination of OMP-52M51 with taxol. The antibodies were dosed i.p. twice a week at 15 mg/kg and Taxol was dosed i.p. once a week at 20 mg/kg. Tumor growth was monitored by caliper measurement once a week.
As described in Example 2, three hundred thousand OMP-B40 tumor cells were injected subcutaneously and allowed to grow to a mean volume of […] At that point, 78 days after study start, mice were randomized and treatment started. Mice received either 15 mg/kg control antibody or 15 mg/kg OMP-52M51 humanized antibody twice weekly, with or without 20 mg/kg paclitaxel once weekly, all administered by IP injection. Mean±SEM, n=10 animals per group.

[2] = tested on: OMP-LU33 lung tumors; test: OMP-LU33 lung tumor, sensitivity to treatment; format: in vivo; settings: no NOTCH1-ICD staining; data not shown
[3] = tested on: OMP-C20 tumor cells; test: OMP-C20 xenograft, tumor growth; format: in vivo, mice; settings: 15 mg/kg twice weekly IP, Day 70; H-score approximately 58
Protocol: One hundred eighty thousand OMP-C20 tumor cells were resuspended in injection media composed of PBS and 0.5× matrigel and injected subcutaneously. The N1.ICD IHC H-score of OMP-C20 cells is approximately 58. The OMP-C20 cells are heterozygous mutant for FBW7. Treatment was initiated 1 day after tumor cell injection and continued for the duration of the experiment. The mice received either 15 mg/kg 1B7.11 control antibody or OMP-52M51 anti-NOTCH1 antibody twice weekly, either as a single therapy or in combination with 7.5 mg/kg Irinotecan administered once weekly. The antibodies and irinotecan were administered by IP injection. Tumor volume is shown as Mean±SEM, n=10 animals per group. OMP-52M51 alone reduced tumor growth to 34% of the tumor growth observed in the control antibody treated group (Day 70, p=<0.001).

B1: OMP-52M51: humanized anti-NOTCH1 antibody, plasmid ATCC PTA-9549; heavy chain variable region SEQ ID NO:14, light chain variable region SEQ ID NO:18 (antibody, V domains shown)
VH: QVQLVQSGAEVKKPGASVKISCKVSGYTLRGYWIEWVRQAPGKGLEWIGQILPGTGRTNYNEKFKGRVTMTADTSTDTAYMELSSLRSEDTAVYYCARFDGNYGYYAMDYWGQGTTVTVSSA
VL: SGVDSQAVVTQEPSLTVSPGGTVTLTCRSSTGAVTTSNYANWFQQKPGQAPRTLIGGTNNRAPGVPARFSGSLLGGKAALTLSGAQPEDEAEYYCALWYSNHWVFGGGTKLTVLG
modifications: 52M51-H4 heavy chain variable region amino acid sequence without putative signal sequence; 52M51-L3 light chain variable region amino acid sequence without putative signal sequence
tumor volume in xenografted animals (in words) ([1]; 15 mg/kg antibody twice weekly, with or without 20 mg/kg paclitaxel once weekly, IP, FIG. 3B): greatly decreased tumor volume | tumor volume versus control, dose response ([1]; OMP-52M51 0.3, 1, 3, 10 mg/kg i.p. twice a week, FIG. 3A): reduction in tumor volume versus control at all doses tested; also recorded: Dose dependent activity | reduction in tumor volume versus control ([1]; antibodies 15 mg/kg i.p. twice a week, Taxol 20 mg/kg i.p. once a week, FIG. 3B): 21.8% | sensitivity to treatment ([1]; tumor with elevated NOTCH1-ICD): significant sensitivity | sensitivity to treatment [2]: did not show significant sensitivity | tumor growth as % of control antibody treated group [3]: 34%
